± gives the uncertainty stated by the source.

The labels stand for the following.
B1: Intersectin-1, residues 1156 to 1213; numbered along this chain, Q15811 (parent)
chain: AVCQVIGMYDYTAQNDDELAFNKGQIINVLNKEDPDWWKGEVNGQVGLFPSNYVKLTT

This series covers variants of B1. Nature of the series: abundance fitness (aPCA) (normalised: wild type 0, dead -1); higher = more abundant; growth selection in yeast, the domain comes from the species named. As to conditions: Homo sapiens.
On to AVCQVIGMYDYTAQNDDELAFNKGQIINVLNKEDPDWWKEEVNGQVGLFPSNYVKLTT [G40E], for which the abundance fitness was -0.769 ± 0.16.
AVCQVIGMYDYTAQNDDELAFNKGQIINVLNKEDPDWWKHEVNGQVGLFPSNYVKLTT [G40H]: the abundance fitness was -0.832 ± 0.21.
The value for AVCQVIGMYDYTAQNDDELAFNKGQIINVLNKEDPDWWKLEVNGQVGLFPSNYVKLTT [G40L] was -0.783 ± 0.12; that for AVCQVIGMYDYTAQNDDELAFNKGQIINVLNKEDPDWWKMEVNGQVGLFPSNYVKLTT [G40M] was -0.658 ± 0.17; that for AVCQVIGMYDYTAQNDDELAFNKGQIINVLNKEDPDWWKSEVNGQVGLFPSNYVKLTT [G40S] was -0.839 ± 0.11.
In the case of AVCQVIGMYDYTAQNDDELAFNKGQIINVLNKEDPDWWKTEVNGQVGLFPSNYVKLTT [G40T], the abundance fitness is -0.56 ± 0.17.
As to AVCQVIGMYDYTAQNDDELAFNKGQIINVLNKEDPDWWKYEVNGQVGLFPSNYVKLTT [G40Y], the abundance fitness is -0.73 ± 0.19.
With AVCQVIGMYDYTAQNDDELAFNKGQIINVLNKEDPDWWKGEVDGQVGLFPSNYVKLTT [N43D] the figure was -0.03 ± 0.14; with AVCQVIGMYDYTAQNDDELAFNKGQIINVLNKEDPDWWKGEVMGQVGLFPSNYVKLTT [N43M], -0.56 ± 0.13; with AVCQVIGMYDYTAQNDDELAFNKGQIINVLNKEDPDWWKGEVCGQVGLFPSNYVKLTT [N43C], -0.541 ± 0.16.
The value for AVCQVIGMYDYTAQNDDELAFNKGQIINVLNKEDPDWWKGEVFGQVGLFPSNYVKLTT [N43F] was -0.799 ± 0.24.
In the case of AVCQVIGMYDYTAQNDDELAFNKGQIINVLNKEDPDWWKGEVEGQVGLFPSNYVKLTT [N43E], the abundance fitness was -0.189 ± 0.12.
With AVCQVIGMYDYTAQNDDELAFNKGQIINVLNKEDPDWWKGEVLGQVGLFPSNYVKLTT [N43L] the figure was -0.412 ± 0.11; with AVCQVIGMYDYTAQNDDELAFNKGQIINVLNKEDPDWWKGEVKGQVGLFPSNYVKLTT [N43K], -0.411 ± 0.14.
For the variant AVCQVIGMYDYTAQNDDELAFNKGQIINVLNKEDPDWWKGEVIGQVGLFPSNYVKLTT [N43I], the abundance fitness was -0.93 ± 0.2.
As for AVCQVIGMYDYTAQNDDELAFNKGQIINVLNKEDPDWWKGEVHGQVGLFPSNYVKLTT [N43H], the abundance fitness was -0.08 ± 0.18.
In the case of AVCQVIGMYDYTAQNDDELAFNKGQIINVLNKEDPDWWKGEVAGQVGLFPSNYVKLTT [N43A], the abundance fitness was -0.263 ± 0.1.
As to AVCQVIGMYDYTAQNDDELAFNKGQIINVLNKEDPDWWKGEVGGQVGLFPSNYVKLTT [N43G], the abundance fitness was -0.241 ± 0.084.
On to AVCQVIGMYDYTAQNDDELAFNKGQIINVLNKEDPDTWKGEVNGQVGLFPSNYVKLTT [W37T], for which the abundance fitness is -0.276 ± 0.13.
Regarding AVCQVIGMYDYTAQNDDELAFNKGQIINVLNKEDPDYWKGEVNGQVGLFPSNYVKLTT [W37Y], the abundance fitness was -0.058 ± 0.13.
Consider AVCQVIGMYDYTAQNDDELAFNKGQIINVLNKEDPDPWKGEVNGQVGLFPSNYVKLTT [W37P], for which the abundance fitness is -0.947 ± 0.19.
The value for AVCQVIGMYDYTAQNDDELAFNKGQIINVLNKEDPDSWKGEVNGQVGLFPSNYVKLTT [W37S] was -0.778 ± 0.12; that for AVCQVIGMYDYTAQNDDELAFNKGQIINVLNKEDPDIWKGEVNGQVGLFPSNYVKLTT [W37I] was -0.022 ± 0.15.
As for AVCQVIGMYDYTAQNDDELAFNKGQIINVLNKEDPDLWKGEVNGQVGLFPSNYVKLTT [W37L], the abundance fitness was -0.339 ± 0.085.
AVCQVIGMYDYTAQNDDELAFNKGQIINVLNKEDPDRWKGEVNGQVGLFPSNYVKLTT [W37R]: the abundance fitness is -0.49 ± 0.084.
Take AVCQVIGMYDYTAQNDDELAFNKGQIINVLNKEDPDKWKGEVNGQVGLFPSNYVKLTT [W37K]: the abundance fitness was -0.792 ± 0.2.
As for AVCQVIGMYDYTAQNDDELAFNKGQIINVLNKEDPDGWKGEVNGQVGLFPSNYVKLTT [W37G], the abundance fitness is -0.72 ± 0.099.
Regarding AVCQVIGMYDYTAQNDDELAFNKGQIINVLNKEDPDQWKGEVNGQVGLFPSNYVKLTT [W37Q], the abundance fitness was -0.223 ± 0.13.
Consider AVCQVIGMYDYTAQNDDELAFNKGQIINVLNKEDPDMWKGEVNGQVGLFPSNYVKLTT [W37M], for which the abundance fitness turned out to be 0.004 ± 0.12.
AVCQVIGMYDYTAQNDDELAFNKGQIINVLNKEDPDHWKGEVNGQVGLFPSNYVKLTT [W37H]: the abundance fitness is -0.887 ± 0.19.
As for AVCQVIGMYDYTAQNDDELAFNKGQIINVLNKEDPDWWKGWVNGQVGLFPSNYVKLTT [E41W], the abundance fitness is -0.642 ± 0.15.
In the case of AVCQVIGMYDYTAQNDDELAFNKGQIINVLNKEDPDWWKGQVNGQVGLFPSNYVKLTT [E41Q], the abundance fitness was -0.863 ± 0.24.
In the case of AVCQVIGMYDYTAQNDDELAFNKGQIINVLNKEDPDWWKGDVNGQVGLFPSNYVKLTT [E41D], the abundance fitness was -1.11 ± 0.41.
On to AVCQVIGMYDYTAQNDDELAFNKGQIINVLNKEDPDWWKGCVNGQVGLFPSNYVKLTT [E41C], for which the abundance fitness was -0.787 ± 0.2.
As to AVCQVIGMYDYTAQNDDELAFNKGQIINVLNKEDPDWWKGFVNGQVGLFPSNYVKLTT [E41F], the abundance fitness was -1.22 ± 0.3.
AVCQVIGMYDYTAQNDDELAFNKGQIINVLNKEDPDWWKGGVNGQVGLFPSNYVKLTT [E41G]: the abundance fitness is -0.842 ± 0.11.
As for AVCQVIGMYDYTAQNDDELAFNKGQIINVLNKEDPDWWKGKVNGQVGLFPSNYVKLTT [E41K], the abundance fitness was -0.456 ± 0.15.
As to AVCQVIGMYDYTAQNDDELAFNKGQIINVLNKEDPDWWKGIVNGQVGLFPSNYVKLTT [E41I], the abundance fitness was -0.936 ± 0.29.
As to AVCQVIGMYDYTAQNDDELAFNKGQIINVLNKEDPDWWKGAVNGQVGLFPSNYVKLTT [E41A], the abundance fitness was -0.568 ± 0.12.
Turning to AVCQVIGMYDYTAQNDDELAFNKGQIINVLNKEDPDWWKGRVNGQVGLFPSNYVKLTT [E41R], the abundance fitness was -0.746 ± 0.097.
Regarding AVCQVIGMYDYTAQNDDELAFNKGQIINVLNKEDPDWWKGNVNGQVGLFPSNYVKLTT [E41N], the abundance fitness is -0.889 ± 0.25.
Regarding AVCQVIGMYDYTAQNDDELAFNKGQIINVLNKEDPDWWKGYVNGQVGLFPSNYVKLTT [E41Y], the abundance fitness was -0.887 ± 0.23.
In the case of AVCQVIGMYDYTAQNDDELAFNKGQIINVLNKEDPDWWKGVVNGQVGLFPSNYVKLTT [E41V], the abundance fitness was -0.681 ± 0.12.
With AVCQVIGMYDYTAQNDDELAFNKGQIINVLNKEDPDWWKGSVNGQVGLFPSNYVKLTT [E41S] the figure was -0.299 ± 0.1; with AVCQVIGMYDYTAQNDDELAFNKGQIINVLNKEDPDWWKGHVNGQVGLFPSNYVKLTT [E41H], -0.495 ± 0.28.
Consider AVCQVIGMYDYTAQNDDELAFNKGQIINVLNKEDPDWWKGPVNGQVGLFPSNYVKLTT [E41P], for which the abundance fitness was -1 ± 0.21.
